For the data set, the system named is MS2 coat protein. Kind of data set: apparent KD of MS2 coat protein; designed switch direction (-1 OFF switch, 1 ON switch): -1; higher = weaker reporter binding. A digest of the protocol:
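Each step of the titration lasted 0.8–1.5 h at the lowest concentration and 10–20 min at the highest. The protein, SNAP-549-labelled MS2 coat protein, went from 0.7 or 1.5 nM doubling to 3 µM over RNA switches transcribed on Illumina chips by stalled E. coli RNA polymerase. Normalised cluster fluorescence was curve-fitted, and the per-design median over clusters is given as apparent KD.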

The mark [1] stands for this setting: Eterna round: R95, input ligand: FMN 200 uM.
Where [2] appears, read: Eterna round: R95, input ligand: microRNA oligo, concentration not stated.
Where [3] appears, read: Eterna round: R95, input ligand: none.

For the sequence “UAUGGUUAAGUCAGGAUAUACAUACAGAAAUCUGAGUAGAAGGGACAUGAGGAUCACCCAUGUAUGGUAGUGUU [Ex4 #55] (Eterna round: R97, puzzle: Brourd's mod of Exclusion 4)”, the “apparent KD of MS2 coat protein” value by setting is: (input ligand: FMN 200 uM) 141 nM; (input ligand: none) 96.2 nM.

In the case of “UAUGUGUCAGGAUAUUAGUAGUAAAUAAAUAAAAUUAUUACUGAGAAGGGACAUGAGGAUCACCCAUGUACCUU [JR_Ex4_Sub051] (Eterna round: R97, puzzle: Exclusion 4)”, the “apparent KD of MS2 coat protein” value reads like this: (input ligand: FMN 200 uM) 22.6 nM; (input ligand: none) 16.2 nM.

As for “UAUGUGUCAGGAUAUUAGUAGUAAAUGAAUAAAAUUAUUACUGAGAAGGGACAUGAGGAUCACCCAUGUGCCUC [Mat - Exclusion 4 - Eli Mod - D27] (Eterna round: R97, puzzle: Exclusion 4)”, the “apparent KD of MS2 coat protein” value was found to be 345 nM (input ligand: FMN 200 uM) and 35.2 nM (input ligand: none).

Regarding “UAUGUUAGCACAGGAUAUUGUUAUUUUUUUUUUCAAGAAGGGUGUACAUGAGGAUCACCCAUGUUAUGGUUUUAUCUUUUACAA [JR_ExcNG1_Sub012] (Eterna round: R96, puzzle: Exclusion NG 1)”, the “apparent KD of MS2 coat protein” value stood at 877 nM (input ligand: FMN 200 uM); 247 nM (input ligand: microRNA oligo, concentration not stated); 809 nM (input ligand: none).

As for “UAUUAAACAAGCAGGUCCCACAUGAGGAUCACCCAUGUGCUCGUCUUAUAAGGUACUGUGACGAAAGUCACGGUACC [Elimod 16 - Jieux - Sensor, turn-off variant 1] (Eterna round: R97, puzzle: Sensor, turn-off variant 1)”, the “apparent KD of MS2 coat protein” value runs as follows: (input ligand: FMN 200 uM) 37.2 nM; (input ligand: none) 40.1 nM.

In the case of “UAUUAAACAUAGGAUAUCGAAAAUAUCAUUUAACGAGAAGGAUGAACAUGAGGAUCACCCAUGUGGUAUCAUGG [Mat - Exclusion 6 - JL Mod - D15] (puzzle: Exclusion 6)”, the “apparent KD of MS2 coat protein” value under setting [1] is 426 nM, the “apparent KD of MS2 coat protein” value under setting [2] came out at 289 nM and the “apparent KD of MS2 coat protein” value under setting [3] was 148 nM.

On to “UAUUAACAAGCAAGAUCCUACAUGAGGAUCACCCAUGUGCUCGUCUUAUAAGGUACUGUGACGAAAGUCACGGUACC [Sensor 3, v1 - 70] (puzzle: Sensor v3, turn-off variant 1)”, for which the “apparent KD of MS2 coat protein” value by setting is: under setting [1], 294 nM; under setting [2], 42.9 nM; under setting [3], 251 nM.

In the case of “UAUUAACAAGUAAGAUCCAACAUGAGGAUCACCCAUGUGCUCGUCUUAUAAGGUACUGUGACGAAAGUCACGGUACC [Eli 87 v1] (Eterna round: R97, puzzle: Sensor, turn-off variant 1)”, the “apparent KD of MS2 coat protein” value by setting is: (input ligand: FMN 200 uM) 21.2 nM; (input ligand: none) 21.8 nM.

Regarding “UAUUACCCAAGCAGGUCCCACAUGAGGAUCACCCAUGUGCUCGUCUUAUAACGAUCUGUGGGAAAACCUACGGAUCG [Elimod 20 - Jieux - Sensor, turn-off variant 1] (Eterna round: R97, puzzle: Sensor, turn-off variant 1)”, the “apparent KD of MS2 coat protein” value came out at 27.7 nM (input ligand: FMN 200 uM) and 34.4 nM (input ligand: none).

Consider “UAUUAGCAAGCAACUGGGUACAUGAGGAUCACCCAUGUGCUCGUCUUAUAAGGUACUGUGACGAAAGUCACUGUACC [mod--Eli14] (Eterna round: R97, puzzle: Sensor, turn-off variant 1)”, for which the “apparent KD of MS2 coat protein” value by setting is: (input ligand: FMN 200 uM) 17.8 nM; (input ligand: none) 16.3 nM.

“UAUUAGCAAGCAAGAUCCUACAUGAGGAUCACCCAUGUGCUCGUCUUAAGCCCAGAAUUACUGGGCGCUCGUCUUAU [Winner reversed engineered 21] (Eterna round: R97, puzzle: Sensor, turn-off variant 1)”: the “apparent KD of MS2 coat protein” value is, setting by setting: (input ligand: FMN 200 uM) 521 nM; (input ligand: none) 684 nM.

As for “UAUUAGCAAGCAGGAUCCCACAUGAGGAUCACCCAUGUGCUCGUCUUAUAAGGUACUGUGACGAAAGUCACGGUACC [Sensor 3, v1 - 90] (puzzle: Sensor v3, turn-off variant 1)”, the “apparent KD of MS2 coat protein” value stood at 81.3 nM under setting [1], 186 nM under setting [2] and 90.9 nM under setting [3].

Take “UAUUAGUAAGGAUAUCUCUGCAUGGACGAAAGUCCAUGCAGAGAGAAGGUACAUGAGGAUCACCCAUGUUCAUU [Mod of Fisker 17 - Jieux - Exclusion 4] (Eterna round: R97, puzzle: Exclusion 4)”: the “apparent KD of MS2 coat protein” value by setting is: (input ligand: FMN 200 uM) 17.1 nM; (input ligand: none) 15 nM.

Regarding “UAUUAGUAAGGAUAUGAGCCGUAGGACGAAAGUCCUACGGCUCAGAAGGUACAUGAGGAUCACCCAUGUUUAUU [Mod of Fisker 6 - Jieux - Exclusion 4] (Eterna round: R97, puzzle: Exclusion 4)”, the “apparent KD of MS2 coat protein” value turned out to be 22.5 nM (input ligand: FMN 200 uM) and 15.9 nM (input ligand: none).

For the sequence “UAUUCACAAGCGAGAUCCCACAUGAGGAUCACCCAUGUGCUCGUCUUAUAAGGUACUGUGACGAAAGUCACGGUACC [Sensor 3, v1 - 91 v25] (Eterna round: R97, puzzle: Sensor, turn-off variant 1)”, the “apparent KD of MS2 coat protein” value was 19.9 nM (input ligand: FMN 200 uM) and 20 nM (input ligand: none).

Turning to “UAUUCACAUGAGGAUCACCCAUGUCAGGAUAUAUUCGAUAUAUGGAAACAUAUAUCGAAUAGAAGGGACUAGCG [Jieuxxlusion 10 - Jieux - Exclusion 1] (Eterna round: R97, puzzle: Exclusion 1)”, under “input ligand: FMN 200 uM”, the “apparent KD of MS2 coat protein” value is 54.6 nM.

Regarding “UAUUCGCGAGGAUAUGCAUUCGAGUCCAUUACGUGUCUGGGACUUGAGGAUCACCCAAGUAGAAGGCGUCUCAU [salish99_ex2_r4_643] (Eterna round: R97, puzzle: Exclusion 2)”, the “apparent KD of MS2 coat protein” value is, setting by setting: (input ligand: FMN 200 uM) 99.7 nM; (input ligand: none) 145 nM.

Consider “UAUUGAGAGCAGGAUAUAUUCCUGAUGUAUGAAGUAGAAGGGCUCACAUGAGGAUCACCCAUGUGAUCCUGAAU [Mat - Exclusion 6 - Eli Mod - D5] (Eterna round: R97, puzzle: Exclusion 6)”, for which the “apparent KD of MS2 coat protein” value (input ligand: FMN 200 uM) is 15.5 nM and the “apparent KD of MS2 coat protein” value (input ligand: none) worked out at 14 nM.

As for “UAUUUAGCAAGCAGAUCCCACAUGAGGAUCACCCAUGUUUUCUGAAUGUACAGAAUUACUGUACUUGCUCGUCUUAU [Winner reversed engineered 36] (Eterna round: R97, puzzle: Sensor, turn-off variant 1)”, the “apparent KD of MS2 coat protein” value (input ligand: FMN 200 uM) stood at 76.2 nM and the “apparent KD of MS2 coat protein” value (input ligand: none) worked out at 82.6 nM.

“UAUUUAGCAAGUAGAUCCUACAUGAGGAUCACCCAUGUGCUCUGAAAUAACGCAGAAUUACUGCGAGCUCGUCUUAU [Winner reversed engineered 28] (Eterna round: R97, puzzle: Sensor, turn-off variant 1)”: the “apparent KD of MS2 coat protein” value runs as follows: (input ligand: FMN 200 uM) 1080 nM; (input ligand: none) 1560 nM.

For “UAUUUGCAAGCGAGAUCCCACAUGAGGAUCACCCAUGUGCUCGUCUUAUAAGGUACUGUGACGAUAGUCACGGUACC [Mat - Sensor, turn-off var - Eli Mod - D89] (Eterna round: R97, puzzle: Sensor, turn-off variant 1)”, the “apparent KD of MS2 coat protein” value was 14 nM (input ligand: FMN 200 uM) and 14.4 nM (input ligand: none).

On to “UCAAGCUUUAGGCGUGUGAACAUGAGGAUCACCCAUGUAUUUUUGGUUAGGAGUUCUGUAAGGGAUGCUCGUCUUAU [JR_SWV3TOV1_Sub092] (puzzle: Sensor v3, turn-off variant 1)”, for which the “apparent KD of MS2 coat protein” value was found to be 57.5 nM under setting [1], 54.8 nM under setting [2] and 75.8 nM under setting [3].

The record behind these values is the supplement of paper PMC9170038.
